The target in assay [1] is T1, HMW-MAA-specific human scFv C21 (biotinylated (NHS-LC-biotin) in the competition and panning assays). As to the kind of experiment: SPR (Biacore 3000, 25 C), peptide over amine-coupled scFv C21, 1:1 Langmuir fit. In general terms: SPR reads the build-up and loss of mass on a sensor chip optically.
Assay [2] has as its target T1, HMW-MAA-specific human scFv C21. Nature of the assay: inhibition cell ELISA: peptide incubated 2 h at 4 °C with PP scFv C21 (1:1600) and biotinylated mAb 9E10, then added to Colo38 cells, SA-HRP; blocked ligand: HMW-MAA on Colo38 cells. For orientation: An ELISA detects its analyte on a solid surface through an enzyme-linked reagent.
Assay [3] has the same target. As to the kind of experiment: SPR (Biacore 3000, 25 C), peptide over amine-coupled scFv C21, koff/kon.
The target is the same in assay [4]. Nature of the assay: calculated from a molecular docking model (…); not measured.

Here are results for three molecules from patent publication US20110200608A1 (UNIVERSITY OF PITTSBURGH OF THE COMMONWEALTH SYSTEM OF …, published 2011).

Bridges are numbered along the chain shown (N, C = ends). Where no end group is shown, it is not given here.

T1 sequence (chain, as listed by the source): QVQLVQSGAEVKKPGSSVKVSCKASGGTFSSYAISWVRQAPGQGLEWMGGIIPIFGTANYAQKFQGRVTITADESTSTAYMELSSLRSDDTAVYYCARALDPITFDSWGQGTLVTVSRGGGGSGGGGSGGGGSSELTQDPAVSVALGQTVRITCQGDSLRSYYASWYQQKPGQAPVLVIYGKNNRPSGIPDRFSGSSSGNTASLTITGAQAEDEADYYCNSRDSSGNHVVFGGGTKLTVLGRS

As a reminder, the koff is a measure of how fast the partners let go of each other. In general, kon refers to a measure of how fast the partners come together. High values mean faster complex formation, low ones slower complex formation. Usually Kd stands for the concentration at which binding is half-saturated. In the case of SPSWYCPDCDKRPLV (disulfide 6-9 (inferred), Synthetic peptide) [peptide P1C21 (SPSWYCPDCDKRPLV), cyclized], in assay [1], the koff turned out to be 0.0097 s⁻¹ and the kon was found to be 1180 M⁻¹ s⁻¹. Moreover, the “IC50 (read off the curve)” value in assay [2] was approximately 3 µM. The same molecule returned a Kd in assay [3] of 8.24 µM. The “Total Energy (calculated binding energy)” value in assay [4] is -93.8 kcal/mol.
Taken in the same sequence, the figures for RPYRYDPLGDLKSRH [peptide P3C21 (RPYRYDPLGDLKSRH), linear] were 0.0655 s⁻¹, 2170 M⁻¹ s⁻¹, approximately 1 µM, 30.2 µM and -7.3 kcal/mol.
For RPYRYDPLGSLKSRH [peptide P3S10 (RPYRYDPLGSLKSRH)], in assay [1], the koff amounted to 0.00307 s⁻¹ and the kon stood at 917 M⁻¹ s⁻¹. This molecule came in with a dissociation constant Kd in assay [3] of 3.34 µM. Also, in assay [4], the “Total Energy (calculated binding energy)” value is -16.4 kcal/mol.
